Measurements taken from patent US20200131473A1, “METHOD OF GENERATING 2 CELL-LIKE STEM CELLS” (IFOM FONDAZIONE ISTITUTO FIRC DI ONCOLOGIA MOLECOLARE, priority 2017, published 2020).

Columns and labels:
Assay type in all cases: cell-based, mouse
[1] = test system: 2C-like genes (Zscan4, MuERV-L/MERVL, Dux) in ESCs (E14, R1); assay: qPCR for 2C-like specific genes in ESCs; settings: Dox-inducible expression of ETAA1-AAD
Description: (§1) All treatments including APH, HU, UV, ATRi, ATMi and Chk1i were added in to fresh ESC medium and the cells were kept in 37° C. and 3% 02 tension for overnight (16-17 hrs) unless mentioned in each particular result section. APH was used at various concentrations ranging from 0.3 uM to 6 uM that is mentioned in each experiment in order to induce mild to acute replication stress response. Similarly, HU was used at 0.1 mM-3 mM. ATMi (KU-55933) and ATRi (VE 822) were used at the concentration of 10 uM and 1 uM respectively. Moreover, Chk1i (UCN-01) at the concentration of 100 nM was used. UV radiation was performed at the dosage ranging from 2 to 10 J/m2. For induction of ETAA1-AAD expression, Dox was used at the concentration of 1 μg/mL for 48 hrs.
RNA was extracted using RNeasy mini kit (QIAGEN), quantified by NanoDrop spectrophotometer and cDNA was prepared from 2 μg total DNA-depleted RNA using SuperScript™ III reverse transcriptase kit (Invitrogen cat #18080-093) following manufacturer's instructions. qPCR assay performed based on standard protocol using 10× SsoFast™ EvaGreen® Supermix or later 1× LightCycler 480 SYBR Green I Master (Roche, 04707516001), 0.5 μM primer mix and 5 ng of cDNA. GAPDH was used as internal control to normalise the qPCR data following ΔΔCt method, 10 μM primer mix and a total amount of cDNA corresponding to 5 ng of starting RNA for each reaction.

[2] = test system: ATR pathway (γH2AX, CHK1, CHK2 phosphorylation); assay: FACS and immunoblot for ATR pathway activation upon ETAA1-AAD overexpression; settings: for number of γH2AX positive cells: versus empty vector (EV) infected ESCs
Excerpt: (§2) ESCs were fixed and permeabilized using Cytoperm/Cytofix kit (BD Biosciences), and subsequently stained for one hour at room temperature with Alexa Fluor® 647 anti-H2AX-Phosphorylated (Ser139) antibody (Biolegend) or P-CHK1-PE conjugated antibody (cell signaling 12268). Cells were washed and acquired on a FACS Calibur instrument or Attune NxT (Thermo Fisher Scientific). For Emerald-GFP acquisition, cells were trypsinized, collected and subsequently acquired without fixation. Cell cycle profiles were acquired after incubation with DAPI (4′,6-diamidino-2-phenylindole) overnight. For Caspase3 FACS analysis after fixation and permeabilization, Cleaved Caspase3 antibody were used for one hr at RT followed by washes and one hr incubation in donkey anti rabbit secondary antibody. For Zscan4-Emerald-GFP acquisition cells were trypsinized, collected and subsequently acquired without fixation step.
The cells were trypsinized and washed with PBS and then lysed in RIPA buffer plus protease/phosphatase inhibitor cocktail (cell signaling, #5872), incubating for 30 minutes on a rotating wheel at +4° C. Lysates were sonicated with a Bioruptor Sonication System (UCD200) at high power for 3 cycles of 30 seconds with one minute breaks. Lysates were centrifuged at 13000 rpm for 20-30 minutes and clear supernatants were transferred to new tubes. The proteins were quantified using Bio-Rad protein assay and following manufacturer's instructions. For the detection of each protein, 35 μg of total protein extracts were loaded. Standard western blot was performed using following antibodies: ATR antibody (Cell Signaling 2790), Phoshpho-Chk1 antibody-S345 (Cell signaling 2348), Phoshpho-Chk1 antibody S317 (cell signaling 12302), Zscan4 antibody (Abcam ab4340), total Chk1 antibody (Santa Cruz 8408) and Chk2 antibody (Millipore 05-649), Anti-P53 (Cell Signalling, 2524S) and Anti-p-P53 (S15) (Cell Signalling, 12571S), Anti-Goat ALexa488 (Thermo Fisher Scientific, A-11055), Anti-Rabbit Cy3 (Jackson ImmunoResearch, 711-165-152), Anti-Mouse Alexa647 (Thermo Fisher Scientific, A-31571). […]

pZscan4-Emerald ESCs = assay: FACS analysis of Zscan4-Emerald ESCs (Emerald-GFP positive cells)
Description: as §1
as §2, with “For Caspase3 FACS analysis after fixation and permeabilization, Cleaved Caspase3 antibody were used for one hr at RT followed by washes and one hr incubation in donkey anti rabbit secondary antibody. For Zscan4-Emerald-GFP acquisition cells were trypsinized, collected and subsequently acquired without fixation step.” left out

B1: ETAA1-AAD: ATR activating domain of Ewing's tumor-associated antigen 1, overexpressed in ESCs by lentivirus (SEQ ID NO: 2) (protein)
chain: VRQREQPPTAALCSKSNPEERYETPKRALKMETDSLSSSFSSPNDPDGQNDIFWDQNSPLTKQLGKGRKKQIYTTDSDEISHIVNRIAPQDEKPTTNSMETLDMETWIGETAIPCTPSVAKGKSRAKISCTKLKTQSQEEELMETKLAKQFDKNMETEELDVIQEQNKRNYDFTQ
transcription of Zscan4, Dux and MERVL [1]: transcriptional activation of Zscan4, Dux and MERVL
phosphorylation of H2AX, CHK1 and CHK2 in ESCs ([2]; ATR activation through ETAA1 expression): leads to the phosphorylation of H2AX and CHK1 but not CHK2
number of γH2AX positive cells [2]: increase in the number of γH2AX cells
number of γH2AX positive cells ([2]; listed as ETAA1-AAD lentivirus): increase in the number of γH2AX positive cell
Z+ population in ESCs culture (pZscan4-Emerald ESCs; Dox-inducible expression of ETAA1-AAD): significant increase
increase in the number of Zscan4-positive population in ESC culture (pZscan4-Emerald ESCs; ETAA1-AAD lentivirus infected Zscan4-Emerald ESCs vs empty vector): up to 3 fold
